Patent US20250042994A1 (HAINAN SIMCERE ZAIMING PHARMACEUTICAL, published 2025)
Numbering of substitutions follows the chain as printed. Each block holds one binder with its values, some of them ahead of it.

Legend:
[1] = target: T1, murine CD19 protein (murine, UniProt P25918 17-287, limits assumed); assay: ELISA, coated murine CD19
T1 construct: bought protein; also called commercial murine CD19
T1 sequence (looked up): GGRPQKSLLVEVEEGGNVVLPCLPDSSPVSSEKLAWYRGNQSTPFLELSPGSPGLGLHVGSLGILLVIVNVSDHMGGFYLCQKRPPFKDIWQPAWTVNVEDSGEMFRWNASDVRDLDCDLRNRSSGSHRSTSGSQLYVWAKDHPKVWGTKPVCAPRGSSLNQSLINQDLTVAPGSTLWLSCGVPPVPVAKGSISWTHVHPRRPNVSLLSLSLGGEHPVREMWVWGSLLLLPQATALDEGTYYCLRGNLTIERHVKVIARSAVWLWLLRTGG
In short: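 Plates coated overnight at 4° C with recombinant murine or monkey CD19 and blocked with 2% BSA. Chimeric antibodies, serially diluted from 100 nM, bound for 2 h at 37° C. TMB development for 10 min with OD450 read-out.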

[2] = target: T2, Human CD19-his protein (human, UniProt P15391 20-291); assay: ELISA, antibody at 0.0001 nM
T2 construct: bought protein; also called human CD19 protein; recombinant human CD19-His; not shown: His tag
T2 sequence (looked up): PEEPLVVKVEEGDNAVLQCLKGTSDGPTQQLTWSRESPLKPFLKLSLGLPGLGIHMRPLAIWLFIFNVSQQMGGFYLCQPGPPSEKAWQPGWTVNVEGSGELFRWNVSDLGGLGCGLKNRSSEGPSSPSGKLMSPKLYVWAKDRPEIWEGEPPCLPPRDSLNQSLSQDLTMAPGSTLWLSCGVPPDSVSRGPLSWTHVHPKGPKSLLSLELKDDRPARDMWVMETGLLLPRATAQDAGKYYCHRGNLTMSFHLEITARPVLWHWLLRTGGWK

[3] = target: T2, Human CD19-his protein; assay: ELISA, antibody at 0.01 nM
[4] = target: T2, Human CD19-his protein; assay: ELISA, antibody at 1.00 nM
[5] = target: T2, Human CD19-his protein; assay: ELISA, antibody at 100 nM
[6] = target: T3, human CD19 exon1-3-his protein (human, UniProt P15391 20-186, limits assumed); assay: ELISA, coated at 2 ug/mL
T3 construct: made in HEK293E cells; also called membrane-distal end; not shown: His tag
T3 sequence (looked up): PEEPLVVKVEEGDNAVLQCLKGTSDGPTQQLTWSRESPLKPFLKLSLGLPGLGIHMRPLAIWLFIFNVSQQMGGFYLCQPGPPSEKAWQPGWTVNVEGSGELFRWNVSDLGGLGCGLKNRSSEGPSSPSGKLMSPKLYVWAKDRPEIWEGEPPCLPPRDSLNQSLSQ

[7] = target: T2, Human CD19-his protein; assay: ELISA, antibody at 0.10 nM
[8] = target: T2, Human CD19-his protein; assay: ELISA on coated human CD19-His
[9] = target: T2, Human CD19-his protein; assay: ELISA, antibody at 10 nM
[10] = target: T2, Human CD19-his protein; assay: ELISA, antibody at 0.001 nM

- binding result [1]: no binding
- OD450 [2]: 0.06
- OD450 [3]: 0.28
- OD450 [4]: 1.58
- OD450 [5]: 1.98
- binding result [6]: no binding
- OD450 [7]: 1.09
- EC50 (read off the curve) [8]: ~0.07 nM
- OD450 [9]: 1.72
- OD450 [10]: 0.08
B1: F1-mab003 (antibody, human IgG1, V domains shown)
VH: EVQLQQSGPELVKPGASVKMSCKASGYTFTDYVMHWVRQTPGQGLEWIGYFNPYNDGTNYNEKFKVKATLTSDKSSTTAYMELSSLTSEDSAVYYCARGVYYYGRDFDYWGQGTTLTVSS
VL: DVVLTQTPLSLPVSLGDQASISCRSSQSLENSNGNSYLNWYLQKPGQSPQLLIYRVSNRFSGVLDRFSGSGSGTDFTLKISRVEAEDLGVYFCLQITHVPWTFGGGTKLEIK
notes: human-murine chimeric antibody, human IgG1

- binding result [1]: no binding
- OD450 [2]: 0.05
- OD450 [3]: 0.13
- OD450 [4]: 1.06
- OD450 [5]: 0.83
- binding result [6]: no binding
- OD450 [7]: 0.55
- EC50 (read off the curve) [8]: ~0.1 nM
- OD450 [9]: 1
- OD450 [10]: 0.06
B2: F3.64.4 (antibody, human IgG1, V domains shown)
VH: EVQLQQSGPELVKPGASVKISCKASGYTFTDYHINWVKQSHGKSPEWIGDINPNNGGTTYNQKFKDKATLTVDKSSSTAFMELRSLTSEDSAVYYCARFITTVVAWYFDVWGTGTTVTVSS
VL: DIQMTQSPASLSVSVGETVTITCRASENIYSNLAWYQQKQGKSPQLLVYAATNLADGVPSRFSGSGSGTQYSLKINSLQSEDFGNYYCQRFWDTPRTFGGGTKLEIK
notes: as for B1

- binding result [1]: no binding
- OD450 [2]: 0.06
- OD450 [3]: 0.17
- OD450 [4]: 0.83
- OD450 [5]: 0.88
- binding result [6]: no binding
- OD450 [7]: 0.62
- EC50 (read off the curve) [8]: ~0.05 nM
- OD450 [9]: 0.96
- OD450 [10]: 0.08
B3: F4.22.6 (antibody, human IgG1, V domains shown)
VH: QVQLQQSGPELVKPGASVKISCKASGYAFSSFWMNWVKQRPGQGLEWIGRIYPGDGDTNYNGKFKGKATLTADKSSTTAYMHLSSLTSVDSAVYFCTRSVITAVVDWYFDVWGAGTTVTVSS
VL: QIVLSQSPAILSASPGEKVTLTCRASSSVNFMHWYQQKPGSSPKPWIYATSNLASGAPARFSGSGSGTSYSLTISRVEAEDAAAYYCQQWSSYPIFTFGSGTKLEIK
notes: as for B1

- binding result [1]: no binding
- OD450 [2]: 0.05
- OD450 [3]: 0.06
- OD450 [4]: 0.26
- OD450 [5]: 0.38
- binding result [6]: no binding
- OD450 [7]: 0.11
- EC50 (read off the curve) [8]: ~0.5 nM
- OD450 [9]: 0.34
- OD450 [10]: 0.05
B4: F3.113.16 (antibody, human IgG1, V domains shown)
VH: QVQLQQPGAELVKPGASVKLSCKASGYTFTNYWMQWVKQRPGQGLEWIGEIDPSDSYINYNQKFKGKATLTADTSSSTAYMQLSSLTYEDSAVYYCARPVTVPWYFDVWGTGTTVTVSS
VL: EIVLTQSPTTMAASPGEKITITCSATSSISSNYLHWYQQKPGFSPKLLIYRTSNLASGVPARFSGSGSGTSYSLTIGTMEAEDVATYYCQQGSAIPRIFTFGSGTKLEIK
notes: as for B1

- binding result [1]: no binding
- OD450 [2]: 0.05
- OD450 [3]: 0.12
- OD450 [4]: 1.59
- OD450 [5]: 1.62
- binding result [6]: no binding
- OD450 [7]: 0.58
- EC50 (read off the curve) [8]: ~0.2 nM
- OD450 [9]: 1.87
- OD450 [10]: 0.07
B5: F3.133.14 (antibody, human IgG1, V domains shown)
VH: QVQLQQPGAELVMPGASVKLSCKASGYTFTNYWMHWVKQRPGQGLEWIGEIDPSDYYANYNQKFKGKATLTVDKSSSTAYMQLSSLTSEDSAVYYCARSHYYANSYNYWGQGTTLTVSS
VL: B4 VL with V3E, T26S, N32D, V59L, A94S, I95V, I98M, F99L, S103A, I109L
notes: as for B1

- binding result [1]: no binding
- OD450 [2]: 0.05
- OD450 [3]: 0.11
- OD450 [4]: 0.88
- OD450 [5]: 0.82
- binding result [6]: no binding
- OD450 [7]: 0.5
- EC50 (read off the curve) [8]: ~0.1 nM
- OD450 [9]: 1.04
- OD450 [10]: 0.06
B6: F3.121.4 (antibody, human IgG1, V domains shown)
VH: QVQLQQPGAELVVPGTSVKLSCKASGYTFTNYWMHWVKQRPGQGLEWIGEIDPSDNYANYNQEFQGKATLTVDKSSSTAYMQLSSLTSDDSAVYYCARHDGYFGALDYWGQGTSVTVSS
VL: B4 VL with T26S, L47F, G92A, A94S, I98M
notes: human-murine chimeric antibody, human IgG1; also called chimeric antibody F3.121.4

- binding result [1]: no binding
- OD450 [2]: 0.05
- OD450 [3]: 0.15
- OD450 [4]: 1.48
- OD450 [5]: 1.52
- binding result [6]: no binding
- OD450 [7]: 0.68
- EC50 (read off the curve) [8]: ~0.2 nM
- OD450 [9]: 1.76
- OD450 [10]: 0.07
B7: F5.10.6 (antibody, human IgG1, V domains shown)
VH: DVQLQESGPGLVKPSQSLSLTCSVTDYSITSGYYWTWIRQFPGNKLEWMGYISYDGSTNYNPSLKNRFSITRDTSKNQFFLKLNSVIIEDTATYYCARDRMSTTWYFDVWGTGTTVTVSS
VL: DIVLTQSPASLAVSLGQRATISCRASESVDNYGISFMHWYQQKPGQPPKLLIYRASKTESGIPARFSGSGSRTDFTLTINPVETDDVATYYCQQSNKYPRTFGGGTKVEIK
notes: as for B1

- binding result [1]: no binding
- OD450 [2]: 0.07
- OD450 [3]: 0.29
- OD450 [4]: 1.98
- OD450 [5]: 1.9
- binding result [6]: no binding
- OD450 [7]: 1.1
- EC50 (read off the curve) [8]: ~0.07 nM
- OD450 [9]: 1.94
- OD450 [10]: 0.1
B8: F4.21.2 (antibody, human IgG1, V domains shown)
VH: QVQLKQSGPGLVQPSQSLSITCTVSGFSLSTYGVHWVRQSPGRGLEWLGVIWIGGTTDYNAAFISRLTISKDNSRGQVFFKMDSLQANDTAIYYCARKGYYKYDGGYYYAMDYWGQGTSVTVSS
VL: DIQMTQSSSYLSVSLGGRVTITCKASDHINNWLAWYQQKPGNAPWLLISGATSLETGVPSRFSGSGSGKDYTLSISSLQTEDVATYYCQQYWSTPLTFGAGTKLELK
notes: as for B1

- binding result [1]: no binding
- OD450 [2]: 0.06
- OD450 [3]: 0.33
- OD450 [4]: 2.14
- OD450 [5]: 2.25
- binding result [6]: no binding
- OD450 [7]: 1.56
- EC50 (read off the curve) [8]: ~0.04 nM
- OD450 [9]: 2.14
- OD450 [10]: 0.09
B9: F4.272.13 (antibody, human IgG1, V domains shown)
VH: QVQLKESGPGLVAPSQSLSITCTVSGFSLTDYGVSWIRQPPGKGLEWLGVIWGSETTFYNSALKSRLSISKDNSKSQLFLQMNSLQADDTAIYYCAKHHYYGGSFSMDYWGQGTSVTVSS
VL: DIQMTQTTSSLSASLGDRVTISCRASQDINNYLNWYQQKPDGTVKFLIYYTSRLHSGVPSRFSGSGSGTDYSLTISDLEQEDIATYFCQQGNTLPYTFGGGTKLEIK
notes: as for B1

- binding result [1]: no binding
- OD450 [2]: 0.05
- OD450 [3]: 0.25
- OD450 [4]: 2.01
- OD450 [5]: 1.69
- binding result [6]: no binding
- OD450 [7]: 1.32
- EC50 (read off the curve) [8]: ~0.05 nM
- OD450 [9]: 1.96
- OD450 [10]: 0.08
B10: F4.18.13 (antibody, human IgG1, V domains shown)
VH: QVQLQQSGPELVKPGASVKISCKASGYAFSSFWMNWVKQRPGEGLEWIGRIYPGDGDTNYNGKFKGKATLTADDSSSTAYMQLSSLTSVDSAVYFCAREVIAAVVTTDFDYWGQGTTLTVSS
VL: B9 VL with A25T, N30S, Q37L, F46L, R53G, D77N, Q80P, N92K
notes: as for B1

- binding result [1]: no binding
- OD450 [2]: 0.05
- OD450 [3]: 0.18
- OD450 [4]: 1.3
- OD450 [5]: 1.54
- binding result [6]: no binding
- OD450 [7]: 0.8
- EC50 (read off the curve) [8]: ~0.09 nM
- OD450 [9]: 1.4
- OD450 [10]: 0.07
B11: F2.15.26 (antibody, human IgG1, V domains shown)
VH: QVQLKESGPGLVAPSQSLSITCTVSGFSLTDYGVSWIRQSPGKGLEWLGVIWGSGDTYYNSVLESRLSINKDNSKNQVFLKMNSLQTDDAAMYFCAKHSYYGGSFAMDYWGQGTSVTVSS
VL: B9 VL with N30S, F46L, D77N, N92K, Y96W
notes: as for B1
